The series addresses DDX3X helicase core WT (human, UniProt O00571 132-607). Kind of series: fluorescence polarization.

Chain of DDX3X helicase core WT (O00571 132-607): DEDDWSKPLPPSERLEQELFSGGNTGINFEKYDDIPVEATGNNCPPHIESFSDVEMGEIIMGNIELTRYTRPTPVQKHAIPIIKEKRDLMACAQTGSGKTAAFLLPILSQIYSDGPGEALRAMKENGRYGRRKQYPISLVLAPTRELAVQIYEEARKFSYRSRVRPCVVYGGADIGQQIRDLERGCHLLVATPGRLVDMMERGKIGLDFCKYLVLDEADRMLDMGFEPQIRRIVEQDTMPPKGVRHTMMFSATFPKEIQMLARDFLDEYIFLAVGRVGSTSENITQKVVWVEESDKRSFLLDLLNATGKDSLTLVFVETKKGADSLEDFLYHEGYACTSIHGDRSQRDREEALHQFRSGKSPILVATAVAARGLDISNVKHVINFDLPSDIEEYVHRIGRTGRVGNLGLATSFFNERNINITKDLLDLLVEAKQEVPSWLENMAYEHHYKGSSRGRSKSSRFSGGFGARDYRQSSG

Turning to UCUCUCUCUCUCUCUCUCUC (ssRNA) [(UC)10], the binding result is on record as “no binding”.

For the origin of these results see publication PMC8052261.
